Results: paper PMC4058522, “Structural Basis for Phosphorylation-Dependent Recruitment of Tel2 to Hsp90 by Pih1” (Structure(London, England:1993), 2014)
Changes are numbered by the printed parent chain. In names and notes the source's numbering stands. Square brackets hold non-standard residues; d marks the D form. Ends that are not written are not given here. pT = C[C@@H](OP(=O)(O)O)[C@H](N)C(=O)O; pS = N[C@@H](COP(=O)(O)O)C(=O)O

T1: Tah1 (yeast, full-length) (yeast, UniProt P25638 1-111)
T1 construct: Tah1, S. cerevisiae, full length (C-terminal residue Ser 111); Selenomethionine-labelled Tah1 was used for the crystal structure; also called Tah1p; SeMetTah1
T1 sequence (looked up): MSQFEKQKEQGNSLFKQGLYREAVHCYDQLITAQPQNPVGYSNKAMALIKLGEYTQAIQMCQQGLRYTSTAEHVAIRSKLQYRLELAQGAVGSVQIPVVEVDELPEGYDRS

T2: FLAG-tagged Tah1 (yeast, UniProt P25638 1-111)
T2 construct: Tah1p, S. cerevisiae; also called FLAG-Tah1; Flag-Tah1p
T2 sequence: T1 sequence (looked up)

B1: human Spagh/RPAP3 120-395 (tandem TPR region) (domain or fragment, UniProt Q9H6T3 120-395, looked up)
chain: ESEEDGIHVDSQKALVLKEKGNKYFKQGKYDEAIDCYTKGMDADPYNPVLPTNRASAYFRLKKFAVAESDCNLAVALNRSYTKAYSRRGAARFALQKLEEAKKDYERVLELEPNNFEATNELRKISQALASKENSYPKEADIVIKSTEGERKQIEAQQNKQQAISEKDRGNGFFKEGKYERAIECYTRGIAADGANALLPANRAMAYLKIQKYEEAEKDCTQAILLDGSYSKAFARRGTARTFLGKLNEAKQDFETVLLLEPGNKQAVTELSKIKK
notes: Spagh/RPAP3, human, residues 120-395, tandem TPR region; GST fusion with a PreScission site; also called Spagh/RPAP3-TPR2 (label of the tandem region in the text); wild-type Spagh/RPAP3
B2: Spagh/RPAP3 120-395 N321E (domain or fragment, human, UniProt Q9H6T3 120-395, looked up)
chain: B1 chain with N202E
notes: Spagh/RPAP3, human, residues 120-395, N321E in TPR2; also called N321E-TPR2 mutant
B3: Spagh/RPAP3 120-395 N172E (domain or fragment, human, UniProt Q9H6T3 120-395, looked up)
chain: B1 chain with N53E
notes: Spagh/RPAP3, human, residues 120-395, N172E in TPR1; also called N172E-TPR1 mutant
B4: Tel2 peptide with pSer492 replaced by phosphothreonine (peptide)
peptide: QGSDSELD[pT]DDEF
notes: also called phosphothreonine Tel2 peptide
B5: Mre11 phosphopeptide MANDpSDDSI (peptide)
peptide: MAND[pS]DDSI
notes: Mre11, phosphorylation site 554-MANDpSDDSIS-563 found among sites in human proteins
B6: human Hsp90 C-terminal peptide DDTSRMEEVD (peptide)
peptide: DDTSRMEEVD
notes: human Hsp90 C-terminal peptide; also called C-terminal Hsp90 peptide
B7: dimeric C-terminal domain of Hsp90 (Hsp90 600-709) (domain or fragment)
chain: not shown
notes: Hsp90 residues 600-709, dimeric C-terminal domain; also called cHsp90; C-Hsp90
B8: Tah1p-Pih1p 187-344 complex (complex, yeast)
chain 1: T1 sequence (looked up)
chain 2: HKIIEEEAGDPMSILRGRNDDGDDNNDPDDGTLPPLFPIENKISGAKIEEIDKNEIAHRNLKQAPAPAPAPHEQQEDVPEYEVKMKRFKGAAYKLRILIENKAPNSKPDRFSPSYNFAENILYINGKLSIPLPRDIVVNAADIKIFHIRKERTLYIYI
notes: Tah1, S. cerevisiae, full length; also called Tah1-Pih1-CS heterodimer

What was measured:
Details in all cases: both partners purified
His6-Hsp90β = molecular target: T3, His6-Hsp90β (human, UniProt P08238 1-724); experiment: pull-down; His6-Hsp90β as bait, Spagh/RPAP3 120-395 tandem TPR segment (wild type and mutants) as prey
T3 construct: Hsp90 beta, human; also called His-tagged Hsp90; human Hsp90β
T3 sequence (P08238 whole entry): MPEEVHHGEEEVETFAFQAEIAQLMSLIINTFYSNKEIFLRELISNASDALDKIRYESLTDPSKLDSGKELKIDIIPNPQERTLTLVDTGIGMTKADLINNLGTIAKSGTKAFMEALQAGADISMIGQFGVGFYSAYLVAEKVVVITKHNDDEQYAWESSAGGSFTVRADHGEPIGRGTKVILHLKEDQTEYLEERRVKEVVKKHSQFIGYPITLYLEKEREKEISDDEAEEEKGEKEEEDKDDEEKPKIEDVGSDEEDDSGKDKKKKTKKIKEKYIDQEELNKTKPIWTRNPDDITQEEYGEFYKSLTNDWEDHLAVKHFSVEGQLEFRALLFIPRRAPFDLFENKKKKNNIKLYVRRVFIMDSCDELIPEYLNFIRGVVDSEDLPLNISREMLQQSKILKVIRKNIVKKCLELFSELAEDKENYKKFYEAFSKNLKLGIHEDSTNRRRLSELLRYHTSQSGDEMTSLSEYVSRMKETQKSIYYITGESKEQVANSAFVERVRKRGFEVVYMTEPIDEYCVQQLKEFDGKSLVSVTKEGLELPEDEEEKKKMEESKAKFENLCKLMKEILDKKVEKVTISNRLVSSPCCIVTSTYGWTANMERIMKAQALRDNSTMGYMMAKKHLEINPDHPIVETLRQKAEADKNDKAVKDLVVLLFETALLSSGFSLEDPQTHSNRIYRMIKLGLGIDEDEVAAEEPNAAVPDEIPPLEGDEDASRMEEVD

[1] = molecular target: T4, mouse Pih1 PIH domain 1-200 (His-mPih1 1-200) (mouse, UniProt Q9CQJ2 1-200); experiment: ITC; peptides at 350 μM injected into 30 μM Pih1 (mPIH domain) at 30°C; 20 mM Tris pH 7.5, 5 mM NaCl
T4 construct: Pih1 (Pih1D1), mouse, residues 1-200; SeMet protein was used for the crystal structure 4CKT; The ITC methods say only 'Pih1' / 'mPIH domain'; also called mPIH domain; Pih1D1
T4 sequence (Q9CQJ2 1-200): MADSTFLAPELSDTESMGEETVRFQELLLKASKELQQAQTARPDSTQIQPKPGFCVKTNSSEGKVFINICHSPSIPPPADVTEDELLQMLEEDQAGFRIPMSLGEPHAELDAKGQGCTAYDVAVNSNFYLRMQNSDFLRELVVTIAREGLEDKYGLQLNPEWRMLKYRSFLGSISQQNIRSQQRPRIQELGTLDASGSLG

[2] = molecular target: B1; experiment: ITC; 2 mM … injected into 80 μM Spagh/RPAP3 120-395; 10 mM Tris pH 7.5, 5 mM NaCl; 10°C; two site fitting
[3] = molecular target: B1; experiment: ITC; 2 mM … injected into 80 μM Spagh/RPAP3 120-395; 10 mM Tris pH 7.5, 5 mM NaCl; 30°C; two site fitting
[4] = molecular target: B3; experiment: ITC; 2 mM … injected into 80 μM Spagh/RPAP3 120-395 mutants (N172E, N321E, N172E-N321E); 10 mM Tris pH 7.5, 5 mM NaCl; temperature not given; two site model
[5] = molecular target: B2; experiment: as above
[6] = molecular target: T1, Tah1 (yeast, full-length); experiment: SEC; calibrated gel-filtration column; cHsp90, Tah1-Pih1p 187-344 and their mixture
[7] = molecular target: B8; experiment: as above
FLAG-tagged Tah1 = molecular target: T2, FLAG-tagged Tah1; experiment: co-IP; 70 μM Flag-Tah1p, Hsp90 600-709 and increasing concentrations of Cpr6 in 20 mM HEPES pH 7.5, 150 mM NaCl, 10% glycerol, 0.5% Igepal, 2 mM EDTA; Anti-Flag M2 magnetic beads; SDS-PAGE
[8] = molecular target: T5, Cpr6 (monomeric TPR-domain Hsp90 cochaperone) (UniProt P53691 1-371); experiment: as above
T5 construct: Cpr6, TPR-domain Hsp90 cochaperone
T5 sequence (P53691 whole entry): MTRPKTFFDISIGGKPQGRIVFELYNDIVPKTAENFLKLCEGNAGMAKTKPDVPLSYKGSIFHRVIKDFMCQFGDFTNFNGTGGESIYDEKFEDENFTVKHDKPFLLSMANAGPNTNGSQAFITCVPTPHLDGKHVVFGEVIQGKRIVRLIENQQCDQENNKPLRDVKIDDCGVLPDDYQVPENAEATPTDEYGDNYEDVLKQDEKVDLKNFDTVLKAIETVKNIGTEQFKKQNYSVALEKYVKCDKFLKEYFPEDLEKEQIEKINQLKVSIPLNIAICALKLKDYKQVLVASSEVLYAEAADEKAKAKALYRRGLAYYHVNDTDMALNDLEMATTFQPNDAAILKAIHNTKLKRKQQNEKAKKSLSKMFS

[9] = molecular target: B7; experiment: SEC; calibrated gel-filtration column; cHsp90, Tah1-Pih1p 187-344 and their mixture

B1
binding result (His6-Hsp90β): binds

B2
binding result (His6-Hsp90β): binds

B3
binding result (His6-Hsp90β): binds

B4
Kd [1]: 45.7 µM

B5
Kd [1]: 6.4 µM

B6
KD of the moderate-affinity site (two site fitting) [2]: 24 µM
KD of the tight site (two site fitting) [2]: 1 µM
KD of the moderate-affinity site (two site fitting) [3]: 23.6 µM
KD of the tight site (two site fitting) [3]: 1.49 µM
stoichiometry N [3]: ~2 peptides per Spagh/RPAP3
KD of the TPR1 site (mutated; two site model) [4]: ~231 µM
KD of the TPR1 site (non-mutated; two site model) [5]: 0.94 µM

B7
binding result [6]: binds
binding result [7]: binds
binding result (FLAG-tagged Tah1): binds
binding result [8]: binds

B8
stoichiometry N [9]: 1 Tah1-Pih1 heterodimer per cHsp90 chain (2:2:2)
